Assay results from publication PMC10397247.
One block for each binder: values may come before it.

Experiments:
Assay in all cases: two-hybrid library CCmax;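 further: natural log of median RNA to DNA barcode read ratio; higher means stronger binding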
4H816-AA = target: T1, 4H816-AA; conditions: mean of both orientations
T1 chain: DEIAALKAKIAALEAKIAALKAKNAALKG

4H3625-AA = target: T2, 4H3625-AA; conditions: mean of both orientations
T2 chain: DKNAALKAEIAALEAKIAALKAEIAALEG

4H510-AA = target: T3, 4H510-AA; conditions: mean of both orientations
T3 chain: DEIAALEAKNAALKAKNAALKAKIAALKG

4H2873-AA = target: T4, 4H2873-AA
T4 chain: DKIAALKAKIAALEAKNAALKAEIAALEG

4H87-AA = target: T5, 4H87-AA; conditions: mean of both orientations
T5 chain: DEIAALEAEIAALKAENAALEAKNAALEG

4H3409-AA = target: T6, 4H3409-AA; conditions: mean of both orientations
T6 chain: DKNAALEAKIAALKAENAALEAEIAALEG

4H2985-AA = target: T7, 4H2985-AA; conditions: mean of both orientations
T7 chain: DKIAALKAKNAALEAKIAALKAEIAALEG

4H3134-AA = target: T8, 4H3134-AA; conditions: mean of both orientations
T8 chain: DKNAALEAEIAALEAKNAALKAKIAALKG

4H3940-AA = target: T9, 4H3940-AA; conditions: mean of both orientations
T9 chain: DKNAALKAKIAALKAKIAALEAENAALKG

4H390-AA = target: T10, 4H390-AA; conditions: mean of both orientations
T10 chain: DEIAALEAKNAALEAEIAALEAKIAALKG

4H775-AA = target: T11, 4H775-AA; conditions: mean of both orientations
T11 chain: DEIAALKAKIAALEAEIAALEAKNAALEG

4H2642-AA = target: T12, 4H2642-AA; conditions: mean of both orientations
T12 chain: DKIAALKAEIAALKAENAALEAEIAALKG

4H717-AA = target: T13, 4H717-AA; conditions: mean of both orientations
T13 chain: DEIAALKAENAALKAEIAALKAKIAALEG

4H3112-AA = target: T14, 4H3112-AA; conditions: mean of both orientations
T14 chain: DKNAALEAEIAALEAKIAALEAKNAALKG

4H3627-AA = target: T15, 4H3627-AA; conditions: mean of both orientations
T15 chain: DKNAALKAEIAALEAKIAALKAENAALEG

4H2617-AA = target: T16, 4H2617-AA; conditions: mean of both orientations
T16 chain: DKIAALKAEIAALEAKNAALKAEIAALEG

4H881-AA = target: T17, 4H881-AA; conditions: mean of both orientations
T17 chain: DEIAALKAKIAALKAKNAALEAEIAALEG

4H2393-AA = target: T18, 4H2393-AA; conditions: mean of both orientations
T18 chain: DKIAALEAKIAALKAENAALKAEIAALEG

4H993-AA = target: T19, 4H993-AA; conditions: mean of both orientations
T19 chain: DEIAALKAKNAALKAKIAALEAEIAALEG

4H2883-AA = target: T20, 4H2883-AA; conditions: mean of both orientations
T20 chain: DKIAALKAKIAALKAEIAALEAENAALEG

4H3844-AA = target: T21, 4H3844-AA; conditions: mean of both orientations
T21 chain: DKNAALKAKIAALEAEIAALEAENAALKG

4H2729-AA = target: T22, 4H2729-AA; conditions: mean of both orientations
T22 chain: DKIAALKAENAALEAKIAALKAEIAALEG

4H605-AA = target: T23, 4H605-AA; conditions: mean of both orientations
T23 chain: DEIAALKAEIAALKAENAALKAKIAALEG

4H794-AA = target: T24, 4H794-AA; conditions: mean of both orientations
T24 chain: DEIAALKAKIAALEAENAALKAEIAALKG

4H2354-AA = target: T25, 4H2354-AA; conditions: mean of both orientations
T25 chain: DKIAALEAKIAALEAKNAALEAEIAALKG

4H2754-AA = target: T26, 4H2754-AA; conditions: mean of both orientations
T26 chain: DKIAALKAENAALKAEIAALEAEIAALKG

4H3427-AA = target: T27, 4H3427-AA; conditions: mean of both orientations
T27 chain: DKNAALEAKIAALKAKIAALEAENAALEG

4H3655-AA = target: T28, 4H3655-AA; conditions: mean of both orientations
T28 chain: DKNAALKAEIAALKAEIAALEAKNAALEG

4H2575-AA = target: T29, 4H2575-AA; conditions: mean of both orientations
T29 chain: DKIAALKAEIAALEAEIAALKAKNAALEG

4H3606-AA = target: T30, 4H3606-AA; conditions: mean of both orientations
T30 chain: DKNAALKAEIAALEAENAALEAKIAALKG

4H3921-AA = target: T31, 4H3921-AA; conditions: mean of both orientations
T31 chain: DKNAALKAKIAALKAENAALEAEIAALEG

4H678-AA = target: T32, 4H678-AA; conditions: mean of both orientations
T32 chain: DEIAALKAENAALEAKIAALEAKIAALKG

4H2505-AA = target: T33, 4H2505-AA; conditions: mean of both orientations
T33 chain: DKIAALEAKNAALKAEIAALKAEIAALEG

4H3343-AA = target: T34, 4H3343-AA; conditions: mean of both orientations
T34 chain: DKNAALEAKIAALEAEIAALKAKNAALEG

4H454-AA = target: T35, 4H454-AA; conditions: mean of both orientations
T35 chain: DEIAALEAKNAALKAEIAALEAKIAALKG

4H2949-AA = target: T36, 4H2949-AA; conditions: mean of both orientations
T36 chain: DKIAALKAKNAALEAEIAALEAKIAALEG

4H2190-AA = target: T37, 4H2190-AA
T37 chain: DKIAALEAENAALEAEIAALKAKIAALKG

4H335-AA = target: T38, 4H335-AA; conditions: mean of both orientations
T38 chain: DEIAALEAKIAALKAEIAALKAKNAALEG

4H2466-AA = target: T39, 4H2466-AA; conditions: mean of both orientations
T39 chain: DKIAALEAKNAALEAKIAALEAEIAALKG

4H429-AA = target: T40, 4H429-AA; conditions: mean of both orientations
T40 chain: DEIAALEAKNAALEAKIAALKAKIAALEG

4H234-AA = target: T41, 4H234-AA; conditions: mean of both orientations
T41 chain: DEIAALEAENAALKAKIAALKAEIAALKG

4H48-AA = target: T42, 4H48-AA; conditions: mean of both orientations
T42 chain: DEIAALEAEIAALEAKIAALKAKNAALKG

4H2277-AA = target: T43, 4H2277-AA; conditions: mean of both orientations
T43 chain: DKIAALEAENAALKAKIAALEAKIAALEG

4H2944-AA = target: T44, 4H2944-AA; conditions: mean of both orientations
T44 chain: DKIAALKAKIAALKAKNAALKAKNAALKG

4H566-AA = target: T45, 4H566-AA; conditions: mean of both orientations
T45 chain: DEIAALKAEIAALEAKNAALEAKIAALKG

4H780-AA = target: T46, 4H780-AA; conditions: mean of both orientations
T46 chain: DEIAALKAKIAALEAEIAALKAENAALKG

4H906-AA = target: T47, 4H906-AA; conditions: mean of both orientations
T47 chain: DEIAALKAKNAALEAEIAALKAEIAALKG

4H342-AA = target: T48, 4H342-AA; conditions: mean of both orientations
T48 chain: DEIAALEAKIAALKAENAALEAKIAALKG

4H317-AA = target: T49, 4H317-AA; conditions: mean of both orientations
T49 chain: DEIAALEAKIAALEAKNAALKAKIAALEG

4H2837-AA = target: T50, 4H2837-AA; conditions: mean of both orientations
T50 chain: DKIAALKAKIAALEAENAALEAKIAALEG

interaction score (4H816-AA): -0.999
interaction score (4H3625-AA): 1.8
interaction score (4H510-AA): -0.174
interaction score (4H2873-AA): 0.429
interaction score (4H87-AA): 0.464
interaction score (4H3409-AA): 0.324
interaction score (4H2985-AA): 2.29
interaction score (4H3134-AA): 1.06
interaction score (4H3940-AA): -1.33
interaction score (4H390-AA): 2.21
interaction score (4H775-AA): -0.187
Binder: DKIAALKAKIAALEAKNAALKAEIAALEG [4H2873-AA]

interaction score (4H2642-AA): -0.738
interaction score (4H717-AA): 1.16
interaction score (4H3112-AA): -0.916
interaction score (4H3627-AA): -0.558
interaction score (4H2617-AA): 0.788
interaction score (4H881-AA): 0.176
interaction score (4H2393-AA): 0.996
interaction score (4H993-AA): 2.17
interaction score (4H2883-AA): 0.596
interaction score (4H3844-AA): 0.147
interaction score (4H2729-AA): 2.26
interaction score (4H605-AA): -1.55
interaction score (4H794-AA): -0.883
interaction score (4H2354-AA): -0.303
interaction score (4H2754-AA): 2.3
interaction score (4H3427-AA): -1.15
interaction score (4H3655-AA): 1.73
interaction score (4H2575-AA): -0.718
interaction score (4H3606-AA): -0.529
interaction score (4H3921-AA): -1.21
interaction score (4H678-AA): -0.81
interaction score (4H2505-AA): 2.21
interaction score (4H3343-AA): -1.32
interaction score (4H454-AA): 1.72
interaction score (4H2949-AA): 2.07
interaction score (4H2190-AA): 2.19
interaction score (4H335-AA): 0.22
interaction score (4H2466-AA): 0.489
interaction score (4H429-AA): 1.95
interaction score (4H234-AA): 1.66
interaction score (4H48-AA): -0.0631
interaction score (4H2277-AA): 1.06
interaction score (4H2944-AA): -1.51
interaction score (4H566-AA): 0.26
interaction score (4H780-AA): -1.55
interaction score (4H906-AA): 1.04
interaction score (4H342-AA): 0.437
interaction score (4H317-AA): 2.09
interaction score (4H2837-AA): -1.55
Binder: DKIAALEAENAALEAEIAALKAKIAALKG [4H2190-AA]
